According to publication PMC3431386, “Swi1 Associates with Chromatin through the DDT Domain and Recruits Swi3 to Preserve Genomic Integrity” (PLoS ONE, 2012):

Columns and labels:
Assay in all cases: pull-down; anti-FLAG M2 agarose beads bound to Swi1-FLAG (purified from swi3Δ cells) mixed with His6-Swi3 in lysis buffer A (50 mM Tris-HCl pH 8.0, 150 mM NaCl, 0.1% NP-40, 10% glycerol), 1 hour at 4°C, washed three times, Western blotting with anti-FLAG or His6 antibody
Settings in all cases: both partners purified
[1] = target: T1, full-length Swi1 (1–971)-5FLAG (overexpressed from the nmt1 promoter) (S. pombe, UniProt Q9UUM2 1-971)
T1 construct: also called pREP-Swi1-5FLAG; Swi1-FLAG; source: S. pombe swi3Δ cells, nmt1 promoter, purified on anti-FLAG M2 agarose (500 mM NaCl washes); not shown: 5FLAG, C-terminal, kept
T1 sequence (looked up): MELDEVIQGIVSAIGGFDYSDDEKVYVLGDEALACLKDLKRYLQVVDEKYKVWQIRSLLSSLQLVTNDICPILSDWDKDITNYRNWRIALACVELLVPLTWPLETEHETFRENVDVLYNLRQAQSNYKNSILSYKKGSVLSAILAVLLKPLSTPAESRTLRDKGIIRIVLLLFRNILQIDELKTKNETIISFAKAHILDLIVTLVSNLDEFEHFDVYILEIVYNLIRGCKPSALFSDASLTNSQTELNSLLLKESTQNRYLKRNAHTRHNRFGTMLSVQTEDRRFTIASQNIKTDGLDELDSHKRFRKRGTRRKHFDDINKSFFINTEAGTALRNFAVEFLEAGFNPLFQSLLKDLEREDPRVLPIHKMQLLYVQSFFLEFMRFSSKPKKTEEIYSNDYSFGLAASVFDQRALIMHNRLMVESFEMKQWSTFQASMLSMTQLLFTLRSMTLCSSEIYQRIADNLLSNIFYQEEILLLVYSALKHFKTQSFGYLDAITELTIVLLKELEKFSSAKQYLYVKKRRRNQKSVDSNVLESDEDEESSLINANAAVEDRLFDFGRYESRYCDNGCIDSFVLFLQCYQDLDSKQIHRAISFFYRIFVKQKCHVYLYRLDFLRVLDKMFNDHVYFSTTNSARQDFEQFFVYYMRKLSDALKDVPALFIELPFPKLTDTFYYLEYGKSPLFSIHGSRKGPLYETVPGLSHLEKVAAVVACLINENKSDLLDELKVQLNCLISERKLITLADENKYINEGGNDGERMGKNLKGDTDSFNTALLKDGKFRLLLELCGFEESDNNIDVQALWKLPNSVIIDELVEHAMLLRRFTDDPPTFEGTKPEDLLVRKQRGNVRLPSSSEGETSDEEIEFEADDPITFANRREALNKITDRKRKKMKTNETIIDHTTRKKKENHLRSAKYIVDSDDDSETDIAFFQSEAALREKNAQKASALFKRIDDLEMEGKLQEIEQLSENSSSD

[2] = target: T2, Swi1 (250–550)-5FLAG (S. pombe, UniProt Q9UUM2 250-550)
T2 construct: Swi1, S. pombe, amino acids 250–550 (contains an NLS and the DDT domain); also called DDT domain-containing region; pREP-Swi1(250–550)-5FLAG; source: S. pombe swi3Δ cells, nmt1 promoter, purified on anti-FLAG M2 agarose (500 mM NaCl washes); not shown: 5FLAG, C-terminal, kept
T2 sequence (looked up): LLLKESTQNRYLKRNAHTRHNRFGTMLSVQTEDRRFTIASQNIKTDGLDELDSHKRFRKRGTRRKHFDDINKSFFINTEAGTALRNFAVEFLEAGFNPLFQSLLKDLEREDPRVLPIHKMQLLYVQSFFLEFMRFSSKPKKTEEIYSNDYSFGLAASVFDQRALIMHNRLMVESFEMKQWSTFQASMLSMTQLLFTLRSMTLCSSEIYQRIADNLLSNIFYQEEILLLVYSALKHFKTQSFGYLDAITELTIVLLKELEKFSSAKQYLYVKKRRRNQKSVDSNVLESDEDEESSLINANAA

[3] = target: T3, Swi1 (750–971)-5FLAG (S. pombe, UniProt Q9UUM2 750-971)
T3 construct: also called C-terminal Swi1; Swi1 C-terminal region; source: S. pombe swi3Δ cells, nmt1 promoter, purified on anti-FLAG M2 agarose (500 mM NaCl washes); not shown: 5FLAG, C-terminal, kept
T3 sequence (looked up): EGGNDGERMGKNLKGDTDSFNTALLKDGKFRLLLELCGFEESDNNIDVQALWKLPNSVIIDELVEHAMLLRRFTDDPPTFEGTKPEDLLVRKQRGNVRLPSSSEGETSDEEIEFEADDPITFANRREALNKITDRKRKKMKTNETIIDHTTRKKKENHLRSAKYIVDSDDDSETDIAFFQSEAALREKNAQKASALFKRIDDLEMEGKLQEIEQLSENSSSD

binding result [1]: binds
binding result [2]: binds
binding result [3]: binds
B1: hexahistidine-tagged Swi3 (His6-Swi3) (natural protein, S. pombe, UniProt O14350 1-181, looked up)
chain: MSTAASDSGVEKLVEENKREEVKKNEEEKEFDLGLEENPDSVKKPRKRLAKFDEERLISENGIPKLRKMMRKVKLKGKGHEAKDLKQLLGMYHIWTHELYPRATFDDSISYLKTLGKHRSVKVRRRGWINEIAVENGSDSNASLFTGPSSNSLVNLTSGDPYVQDTADDAFVAQDNDTQLE
notes: Swi3, S. pombe; swi3 open reading frame in the NdeI/XhoI site of pET28a; also called recombinant Swi3; pET28a-Swi3; source: E. coli BL21(DE3), purified (Ni-NTA)
